From publication PMC8046350

Target: T1, Egalitarian (EGL) (UniProt Q9W1K4)
T1 sequence: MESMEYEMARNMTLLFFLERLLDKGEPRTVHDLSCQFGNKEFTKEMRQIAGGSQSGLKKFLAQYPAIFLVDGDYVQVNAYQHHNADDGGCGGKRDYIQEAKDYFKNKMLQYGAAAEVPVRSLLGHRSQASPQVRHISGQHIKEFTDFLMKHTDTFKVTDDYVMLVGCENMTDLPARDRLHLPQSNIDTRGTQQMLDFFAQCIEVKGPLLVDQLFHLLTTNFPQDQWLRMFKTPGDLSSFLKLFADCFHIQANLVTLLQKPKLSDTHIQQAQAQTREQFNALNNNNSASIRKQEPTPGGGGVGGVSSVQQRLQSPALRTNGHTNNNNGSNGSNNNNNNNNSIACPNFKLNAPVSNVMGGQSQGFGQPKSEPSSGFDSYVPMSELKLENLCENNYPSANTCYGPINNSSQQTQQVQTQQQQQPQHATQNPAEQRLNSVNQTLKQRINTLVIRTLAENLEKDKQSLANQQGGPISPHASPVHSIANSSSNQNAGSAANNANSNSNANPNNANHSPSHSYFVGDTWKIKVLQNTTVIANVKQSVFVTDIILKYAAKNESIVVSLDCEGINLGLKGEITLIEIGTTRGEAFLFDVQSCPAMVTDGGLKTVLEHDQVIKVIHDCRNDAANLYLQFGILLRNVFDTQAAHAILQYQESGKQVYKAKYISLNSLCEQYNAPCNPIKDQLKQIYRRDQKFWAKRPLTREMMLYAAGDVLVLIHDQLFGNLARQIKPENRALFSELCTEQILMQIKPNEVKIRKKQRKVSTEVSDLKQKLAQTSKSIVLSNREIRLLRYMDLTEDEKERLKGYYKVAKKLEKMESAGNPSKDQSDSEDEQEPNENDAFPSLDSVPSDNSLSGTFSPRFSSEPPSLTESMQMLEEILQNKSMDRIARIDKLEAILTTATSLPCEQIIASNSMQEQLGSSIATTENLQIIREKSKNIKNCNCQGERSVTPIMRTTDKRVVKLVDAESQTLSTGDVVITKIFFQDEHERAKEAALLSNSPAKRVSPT
Assay: pull-down
Conditions: reference (all sets normalized to TLS); EGL capture: DXB buffer (30 mM Hepes pH 7.3, 50 mM KCl, 2.5 mM MgCl2, 250 mM sucrose, 1 mM DTT), protease and RNase inhibitors, 90 min (binding temperature not …)

Substance fs(1)K10 TLS has a binding signal (fraction of TLS binding) of 1.
